Values of other authors in article PMC3815026.

Legend:
MBL (Homo sapiens) = MBL (Homo sapiens) (UniProt P11226); test: Scatchard
C1q (Homo sapiens) = C1q (Homo sapiens) (UniProt P02745); test: Scatchard
Chain of C1q (Homo sapiens) (P02745 23-245, chain 1 of 3): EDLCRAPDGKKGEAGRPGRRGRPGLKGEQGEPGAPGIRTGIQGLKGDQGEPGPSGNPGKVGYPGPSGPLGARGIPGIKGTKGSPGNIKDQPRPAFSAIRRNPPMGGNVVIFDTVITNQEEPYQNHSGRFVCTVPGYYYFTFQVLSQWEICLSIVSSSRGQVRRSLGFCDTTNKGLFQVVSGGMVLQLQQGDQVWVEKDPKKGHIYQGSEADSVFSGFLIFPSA
Chain of C1q (Homo sapiens) (P02746 28-253, chain 2 of 3, further chain): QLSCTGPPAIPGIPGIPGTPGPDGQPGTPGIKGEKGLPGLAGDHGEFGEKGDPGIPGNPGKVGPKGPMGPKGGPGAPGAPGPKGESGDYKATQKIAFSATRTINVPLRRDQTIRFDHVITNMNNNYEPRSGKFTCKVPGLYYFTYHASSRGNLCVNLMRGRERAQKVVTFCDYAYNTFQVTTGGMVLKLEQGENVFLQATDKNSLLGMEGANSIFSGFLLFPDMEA
Chain of C1q (Homo sapiens) (P02747 29-245, chain 3 of 3, further chain): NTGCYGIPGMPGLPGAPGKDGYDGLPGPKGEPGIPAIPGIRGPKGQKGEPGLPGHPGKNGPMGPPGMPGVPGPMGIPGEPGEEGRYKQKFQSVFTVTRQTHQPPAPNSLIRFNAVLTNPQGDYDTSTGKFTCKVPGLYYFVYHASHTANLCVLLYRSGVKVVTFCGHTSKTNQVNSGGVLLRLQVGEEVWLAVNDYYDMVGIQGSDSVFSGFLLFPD

Chain of serglycin (myeloma cell-derived) (P10124 28-158): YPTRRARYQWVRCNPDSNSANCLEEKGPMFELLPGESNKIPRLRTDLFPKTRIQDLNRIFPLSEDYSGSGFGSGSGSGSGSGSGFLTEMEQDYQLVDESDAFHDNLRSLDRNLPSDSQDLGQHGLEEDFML
Chain of MBL (Homo sapiens) (P11226 21-248): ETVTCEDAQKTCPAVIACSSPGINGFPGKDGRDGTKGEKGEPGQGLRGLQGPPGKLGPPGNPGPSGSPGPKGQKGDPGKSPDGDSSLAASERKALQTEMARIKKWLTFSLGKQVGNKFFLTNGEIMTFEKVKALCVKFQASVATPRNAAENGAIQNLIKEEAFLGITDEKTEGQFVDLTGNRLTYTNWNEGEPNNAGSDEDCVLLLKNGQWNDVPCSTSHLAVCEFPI

serglycin (myeloma cell-derived) (from UniProt P10124)
Kd (MBL (Homo sapiens)): 19 nM | Kd (C1q (Homo sapiens)): 40 nM
